{"source": "patent US20210206842A1", "about": "(NATIONAL RESEARCH COUNCIL OF CANADA, published 2021)", "binders": {"B1": {"name": "VHH DI-48 (VHH)", "VHH": "QVQLVESGGGLVQAGGSLRLSCAASGRTFSTYVMGWFRQTPGKEREFVAGFSWSGDYAIYVNSVKGRFTISRDNAKNTVYLQMNSLRPEDTAVYYCAARQRGGYSGRSYYTGRNDYEYWGQGTQVTVSS", "notes": "From the FC5DIE3IR llama immune library; soluble tagged monomer in SPR; not shown: cmyc and His6 tags at the C-terminus"}}, "key": {"VHH FC5": {"molecular_target": "T1, VHH FC5", "T1 construct": "put together from its FR and CDR entries; also called FC5-VHH; FC5 control", "T1 sequence (VHH, as listed by the source)": "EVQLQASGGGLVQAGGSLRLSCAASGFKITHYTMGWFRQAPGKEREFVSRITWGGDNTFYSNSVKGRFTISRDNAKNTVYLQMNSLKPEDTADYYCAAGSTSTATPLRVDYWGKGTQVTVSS", "experiment": "SPR, VHH flowed over immobilized FC5, 25 C", "description": "(§1) Surface Plasmon Resonance for VHH antibodies. […] Monomeric VHH fractions were collected and protein concentration determined by measuring A280 measurement. Using a Biacore T200 instrument (GE Healthcare), approximately 500-1000 RUs of FC5DIE3IR, FC5 and an irrelevant VHH (2A3-H4) were immobilized on a CM5 Series S sensor chip (GE Healthcare) at pH 4.0 using standard amine coupling according to the manufacturer's instructions (GE Healthcare). […] Surfaces were regenerated by washing with a 120 s pulse of 10 mM glycine pH 1.5. Data were analyzed with Biacore T200 Software v 3.0 and affinities determined using steady state binding or a 1:1 binding model.\n(§2) Surface Plasmon Resonance (SPR)."}, "[1]": {"molecular_target": "T2, FC5DIE3IR recombinant protein", "T2 construct": "Made in CHO-3E7 cells; also called FC5DIE31R; FC5DIE3R", "experiment": "SPR (Biacore T200), VHH flowed over immobilized FC5DIE3IR, steady-state fit, 25 C", "description": "as §1, §2"}}, "data": [{"binder": "B1", "values": [{"measurement": "binding result", "setting": "VHH FC5", "result": "no binding (tested: 312 nM-5000 nM)"}, {"measurement": "Kd", "setting": "[1]", "result": 8.4, "unit": "µM"}]}]}
